This note sets out measurements from patent US20110129470A1.

This experiment concerns the target CD33 (cell surface antigen on HL60 and NB4 cells) (UniProt P20138). Nature of the experiment: cell-based or functional assay.

Sequence of HuM195-dCK conjugate (wild type dCK chemically conjugated to the humanized anti-CD33 monoclonal antibody HuM195) (B2R8V6 whole entry): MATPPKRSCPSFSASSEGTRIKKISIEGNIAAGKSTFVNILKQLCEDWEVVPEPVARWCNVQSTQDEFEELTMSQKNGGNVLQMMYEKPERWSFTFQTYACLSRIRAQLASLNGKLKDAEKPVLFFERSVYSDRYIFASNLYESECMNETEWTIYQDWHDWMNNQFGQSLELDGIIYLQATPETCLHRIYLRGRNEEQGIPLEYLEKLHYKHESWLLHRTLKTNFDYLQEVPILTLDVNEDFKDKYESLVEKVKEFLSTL
Sequence of CD33 (cell surface antigen on HL60 and NB4 cells) (P20138 18-364 limits assumed): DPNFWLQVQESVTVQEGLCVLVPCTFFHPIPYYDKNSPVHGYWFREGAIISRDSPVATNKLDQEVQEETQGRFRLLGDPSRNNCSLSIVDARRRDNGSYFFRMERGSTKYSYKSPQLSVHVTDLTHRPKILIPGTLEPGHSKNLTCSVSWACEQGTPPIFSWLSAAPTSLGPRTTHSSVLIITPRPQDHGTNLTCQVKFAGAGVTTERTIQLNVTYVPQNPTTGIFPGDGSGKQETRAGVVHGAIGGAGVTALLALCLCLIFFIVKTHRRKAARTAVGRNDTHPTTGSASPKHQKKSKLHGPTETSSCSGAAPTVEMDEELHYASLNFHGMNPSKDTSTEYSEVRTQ

For the substance “HuM195-dCK conjugate (wild type dCK chemically conjugated to the humanized anti-CD33 monoclonal antibody HuM195)”, the additional cell killing over AraC alone (Annexin V and propidium iodide apoptosis assay), HL60 cells was 20%; the cell death (Annexin V and propidium iodide apoptosis assay), HL60 cells, conjugate in combination with AraC 1 µM was determined as 70%; the cell killing (apoptosis assay), NB4 cells, conjugate with AraC 250 nM is 65%.
